Experimental data: paper PMC10702427, “Effects of Dimerization on the Deacylase Activities of Human SIRT2” (Biochemistry, 2023)
Values joined by “and” are separate entries in the source; they are usually repeats but may differ in a detail not shown here. Identical values can stand only once. Like-named read-outs stand apart in the source and are kept apart here. Values belong to the molecule of their own block, whether it stands above or below them. Primed or numbered codes have the meaning given here. Where no end group is shown, it is not given here. The star is where a group is joined. Myristoyl = CCCCCCCCCCCCCC(=O)*; PEG4′ = PEG4 linker

B3: SIRT2^cat(Q142A/E340A) (domain or fragment, human)
chain: SGEADMDFLRNLFSQTLSLGSQKERLLDELTLEGVARYMQSERCRRVICLVGAGISTSAGIPDFRSPSTGLYDNLEKYHLPYPEAIFEISYFKKHPEPFFALAKELYPGAFKPTICHYFMRLLKDKGLLLRCYTQNIDTLERIAGLEQEDLVEAHGTFYTSHCVSASCRHEYPLSWMKEKIFSEVTPKCEDCQSLVKPDIVFFGESLPARFFSCMQSDFLKVDLLLVMGTSLQVQPFASLISKAPLSTPRLLINKEKAGQSDPFLGMIMGLGGGMDFDSKKAYRDVAWLGECDQGCLALAELLGWKKALEDLVRREHASIDAQS

How the values were obtained:
[1] = target: SIRT2 catalytic domain (SIRT2^cat), amino acids 34–356 (human) (UniProt Q8IXJ6); experiment: cross-linking; Bis(NHS)-PEG5, 10 μM SIRT2^cat pre-equilibrated with SIRT2 inhibitors, 50 μL, 2% DMSO; SDS-PAGE, Coomassie bands quantified
[2] = target: SIRT2 catalytic domain (SIRT2^cat), amino acids 34–356 (human) (UniProt Q8IXJ6); experiment: cross-linking; 1 mM Bis(NHS)-PEG5, 10 μM SIRT2 protein, room temperature 1 h, PBS with 1 mM DTT, with or without 12 μM acylated H4K16 peptide, ADP-ribose or the 286-313 peptide; SDS-PAGE, Coomassie bands quantified
[3] = target: SIRT2 catalytic domain (SIRT2^cat), amino acids 34–356 (human) (UniProt Q8IXJ6); experiment: SEC; analytical SEC, Bio-Rad Enrich SEC 650 column, PBS with 1 mM DTT, 100 μL injected (SIRT2^cat 2-80 μM; full-length SIRT2 56 μM); Kd of dimer to monomers estimated from the peak concentrations at elution, averaged over all runs with two peaks
[4] = target: SIRT2 catalytic domain (SIRT2^cat), amino acids 34–356 (human) (UniProt Q8IXJ6); experiment: cross-linking; 1 mM Bis(NHS)-PEG5, 10 μM SIRT2 protein, room temperature 1 h, PBS with 1 mM DTT, with or without 12 μM acylated H4K16 peptide, ADP-ribose or the 286-313 peptide; SDS-PAGE, Coomassie bands quantified; remark: listed apart in the source
[5] = target: T1, SIRT2 catalytic domain (SIRT2^cat), amino acids 34–356 (human, UniProt Q8IXJ6-1 34-356)
T1 chain: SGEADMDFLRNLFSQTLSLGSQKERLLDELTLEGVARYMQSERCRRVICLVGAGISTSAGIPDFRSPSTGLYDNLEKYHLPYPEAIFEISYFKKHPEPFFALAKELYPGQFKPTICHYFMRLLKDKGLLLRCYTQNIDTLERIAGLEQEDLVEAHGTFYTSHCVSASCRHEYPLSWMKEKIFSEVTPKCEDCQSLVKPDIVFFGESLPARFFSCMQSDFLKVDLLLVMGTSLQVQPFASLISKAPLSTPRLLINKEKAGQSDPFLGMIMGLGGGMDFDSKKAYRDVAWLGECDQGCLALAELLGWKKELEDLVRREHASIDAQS

SIRT2^cat(Q142A/E340A) = target: B3; experiment: cross-linking; 1 mM Bis(NHS)-PEG5, 10 μM SIRT2 protein, room temperature 1 h, PBS with 1 mM DTT, with or without 12 μM acylated H4K16 peptide, ADP-ribose or the 286-313 peptide; SDS-PAGE, Coomassie bands quantified; conditions: both partners purified
[6] = target: T2, full-length SIRT2 (amino acids 1–389) (human), Q8IXJ6; experiment: as above; conditions: remark: other sources report otherwise
T2 chain: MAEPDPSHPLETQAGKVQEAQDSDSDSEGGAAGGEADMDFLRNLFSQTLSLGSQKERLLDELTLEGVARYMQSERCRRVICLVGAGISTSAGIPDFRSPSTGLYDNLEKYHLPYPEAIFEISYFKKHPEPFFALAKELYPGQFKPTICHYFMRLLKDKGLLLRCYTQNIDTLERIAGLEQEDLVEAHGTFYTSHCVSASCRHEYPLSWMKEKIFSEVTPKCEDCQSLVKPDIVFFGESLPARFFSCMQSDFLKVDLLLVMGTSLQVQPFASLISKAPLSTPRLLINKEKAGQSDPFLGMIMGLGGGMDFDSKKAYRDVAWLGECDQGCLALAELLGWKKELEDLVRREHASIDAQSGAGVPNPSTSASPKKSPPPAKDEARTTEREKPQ

[7] = target: T2, full-length SIRT2 (amino acids 1–389) …; experiment: SEC; analytical SEC, Bio-Rad Enrich SEC 650 column, PBS with 1 mM DTT, 100 μL injected (SIRT2^cat 2-80 μM; full-length SIRT2 56 μM); Kd of dimer to monomers estimated from the peak concentrations at elution, averaged over all runs with two peaks; conditions: remark: other sources report otherwise
[8] = target: the molecule itself; experiment: cell-based or functional assay
[9] = target: myristoyl-H4K16 peptide H4K16 peptide (Homo sapiens, UniProt P62805, myristoylated K16); experiment: gel shift assay

percent of the protein cross-linked as dimer, no inhibitor [1]: 49.9% and 50.6% | percent of the protein cross-linked as dimer, with 20 μM ascorbyl palmitate [1]: 32.1% | percent of the protein cross-linked as dimer, with 200 μM ascorbyl palmitate [1]: 31.8% | percent of the protein cross-linked as dimer [2]: 47.4% | Kd [3]: 121 nM | stoichiometry N [3]: 2 | percent of the protein cross-linked as dimer [4]: 50.8% | percent of the protein cross-linked as trimer [4]: 6% | percent of the protein migrating as monomer after cross-linking [4]: 43.2%
Molecule: SIRT2 catalytic domain (SIRT2^cat), amino acids 34–356 (from UniProt Q8IXJ6-1 34-356) (domain or fragment)

Kd [5]: 2000 nM
Molecule: {FAM-PEG4′}-KGLGKGGAK(Myristoyl)RHRK-OH [FAM-myristoyl-H4K16 peptide]

binding result (SIRT2^cat(Q142A/E340A)): binds | Kd [5]: 1000 nM
B1: myristoyl-H4K16 peptide (13mer) (peptide)
peptide: KGLGKGGAK(Myristoyl)RHRK
notes: also called myristoyl peptide; myristoylated peptide; source: synthetic peptide (New England Peptide)

percent of the protein oligomeric after cross-linking [6]: 50% | stoichiometry N [7]: 2
B2: full-length SIRT2 (amino acids 1–389), Q8IXJ6-1 1-389 (enzyme)
chain: MAEPDPSHPLETQAGKVQEAQDSDSDSEGGAAGGEADMDFLRNLFSQTLSLGSQKERLLDELTLEGVARYMQSERCRRVICLVGAGISTSAGIPDFRSPSTGLYDNLEKYHLPYPEAIFEISYFKKHPEPFFALAKELYPGQFKPTICHYFMRLLKDKGLLLRCYTQNIDTLERIAGLEQEDLVEAHGTFYTSHCVSASCRHEYPLSWMKEKIFSEVTPKCEDCQSLVKPDIVFFGESLPARFFSCMQSDFLKVDLLLVMGTSLQVQPFASLISKAPLSTPRLLINKEKAGQSDPFLGMIMGLGGGMDFDSKKAYRDVAWLGECDQGCLALAELLGWKKELEDLVRREHASIDAQSGAGVPNPSTSASPKKSPPPAKDEARTTEREKPQ

Molecule: B3
fold decrease in de-4-oxononanoylase catalytic efficiency (kcat/Km) of the mutant against wild-type SIRT2^cat [8]: 4 fold | fold decrease in deacetylase catalytic efficiency (kcat/Km, acetyl-H4K16 peptide, 1 mM NAD+) of the mutant against wild-type SIRT2^cat [8]: 6 fold

Kd [9]: ~1500 nM
B4: SIRT2cat catalytic domain (protein)
chain: ERLLDELTLEGVARYMQSERCRRVICLVGAGISTSAGIPDFRSPSTGLYDNLEKYHLPYPEAIFEISYFKKHPEPFFALAKELYPGQFKPTICHYFMRLLKDKGLLLRCYTQNIDTLERIAGLEQEDLVEAHGTFYTSHCVSASCRHEYPLSWMKEKIFSEVTPKCEDCQSLVKPDIVFFGESLPARFFSCMQSDFLKVDLLLVMGTSLQVQPFASLISKAPLSTPRLLINKEKAGQSDPFLGMIMGLGGGMDFDSKKAYRDVAWLGECDQGCLALAELLGWKKELEDLVRREHASIDAQS
